In patent US20240228562A1 (Pieris, published 2024):

T1: recombinant rat CTGF protein (R&D Systems) (rat, UniProt Q9R1E9 25-347)
T1 construct: Bought; also called rCTGF
T1 sequence: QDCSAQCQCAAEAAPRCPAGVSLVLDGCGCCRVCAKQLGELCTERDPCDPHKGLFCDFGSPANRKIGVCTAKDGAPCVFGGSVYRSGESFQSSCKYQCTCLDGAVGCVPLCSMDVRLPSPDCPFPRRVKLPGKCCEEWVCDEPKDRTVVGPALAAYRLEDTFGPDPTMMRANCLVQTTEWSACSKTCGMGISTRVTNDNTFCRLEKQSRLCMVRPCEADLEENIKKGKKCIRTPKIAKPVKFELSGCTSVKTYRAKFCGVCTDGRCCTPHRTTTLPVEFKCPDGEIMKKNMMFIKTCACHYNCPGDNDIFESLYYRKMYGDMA

T2: huWISP-2 (human, UniProt O76076 24-250, limits assumed)
T2 construct: also called human WISP-2 (CCN5)
T2 sequence (looked up): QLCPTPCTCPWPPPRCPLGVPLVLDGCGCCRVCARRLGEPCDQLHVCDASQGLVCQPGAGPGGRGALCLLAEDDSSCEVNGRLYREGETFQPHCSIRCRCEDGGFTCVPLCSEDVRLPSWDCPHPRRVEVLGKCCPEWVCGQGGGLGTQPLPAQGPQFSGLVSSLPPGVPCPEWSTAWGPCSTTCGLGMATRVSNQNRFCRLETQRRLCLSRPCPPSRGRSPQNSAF

T3: huNOV (human, UniProt P48745 32-357, limits assumed)
T3 construct: also called human NOV (CCN3)
T3 sequence (looked up): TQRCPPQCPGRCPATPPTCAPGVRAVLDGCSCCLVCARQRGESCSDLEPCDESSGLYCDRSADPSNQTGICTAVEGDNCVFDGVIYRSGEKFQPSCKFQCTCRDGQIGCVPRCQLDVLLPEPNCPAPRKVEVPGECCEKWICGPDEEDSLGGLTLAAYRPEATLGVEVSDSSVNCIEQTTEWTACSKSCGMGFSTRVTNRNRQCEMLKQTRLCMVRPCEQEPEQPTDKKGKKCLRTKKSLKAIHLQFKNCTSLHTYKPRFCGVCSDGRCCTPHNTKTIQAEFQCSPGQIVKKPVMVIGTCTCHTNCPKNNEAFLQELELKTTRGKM

T4: huWISP-3 (human, UniProt O95389 24-354, limits assumed)
T4 construct: also called human WISP-3 (CCN6)
T4 sequence (looked up): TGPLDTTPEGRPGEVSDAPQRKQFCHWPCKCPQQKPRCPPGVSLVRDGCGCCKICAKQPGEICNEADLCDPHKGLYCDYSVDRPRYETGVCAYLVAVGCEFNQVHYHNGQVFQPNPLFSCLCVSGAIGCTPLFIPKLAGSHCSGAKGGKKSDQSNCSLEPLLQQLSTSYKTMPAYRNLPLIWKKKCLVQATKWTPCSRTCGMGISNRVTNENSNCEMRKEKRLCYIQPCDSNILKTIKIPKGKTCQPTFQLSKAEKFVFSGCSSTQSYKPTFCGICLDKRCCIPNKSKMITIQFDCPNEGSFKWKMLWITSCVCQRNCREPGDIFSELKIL


What was measured:
[1] = molecular target: T5, recombinant human CTGF-Fc protein (Creative Biomart) (human); assay: SPR (Biacore)
T5 construct: Bought; also called human CTGF with a human IgG1 Fc Tag
How it was run: (§1)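 Lipocalin muteins injected at 25 °C over CTGF either Fc-tagged and captured by anti-human IgG-Fc (0.25-2.5 μg/mL in HBS-EP+, 180 s) or amine-coupled directly to a CM5 chip. Association 180 s, dissociation 900-3600 s, flow 30 μL/min.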

[2] = molecular target: T1, recombinant rat CTGF protein (R&D …); assay: SPR (Biacore)
How it was run: as §1

huWISP-2 = molecular target: T2, huWISP-2; assay: ELISA, coated CCN protein
Description: (§2) Binding of muteins to closely related proteins of CTGF was tested by an ELISA assay. In detail, a 384-well plate suitable for fluorescence measurements (Greiner FLUOTRAC™ 600, black flat bottom, high-binding) was coated with 20 μl of human CTGF or the other members of the CCN protein family at a concentration of 1 μg/ml in PBS over night at 4° C. After washing with PBS with 0.05% Tween 20, wells were blocked with 100 μl blocking buffer containing 0.1% Tween 20 and 2% BSA (PBS-T/BSA) for 1 h at room temperature. 20 μl of serially diluted muteins starting at 1000 nM were incubated in PBS-T/BSA for 1 h at room temperature (RT).
(§3) The residual supernatants were discarded and 20 μl HRP-labeled anti-NGAL or anti-Strep-Tag antibody was added at a predetermined optimal concentration in PBS-T/BSA and incubated for 1 h at RT. After washing, 20 μl fluorogenic HRP substrate (QuantaBlu, Thermo) was added to each well, and the reaction was allowed to proceed for 2 to 60 minutes. The fluorescence intensity of every well on the plate was read using a fluorescence microplate reader (Tecan). When the signal for human CTGF approached saturation, the cross reactivity to the other proteins was assessed.

huNOV = molecular target: T3, huNOV; assay: ELISA, coated CCN protein
Description: as §2, §3

huWISP-3 = molecular target: T4, huWISP-3; assay: ELISA, coated CCN protein
Description: as §2, §3

T5 sequence (chain, as listed by the source limits assumed): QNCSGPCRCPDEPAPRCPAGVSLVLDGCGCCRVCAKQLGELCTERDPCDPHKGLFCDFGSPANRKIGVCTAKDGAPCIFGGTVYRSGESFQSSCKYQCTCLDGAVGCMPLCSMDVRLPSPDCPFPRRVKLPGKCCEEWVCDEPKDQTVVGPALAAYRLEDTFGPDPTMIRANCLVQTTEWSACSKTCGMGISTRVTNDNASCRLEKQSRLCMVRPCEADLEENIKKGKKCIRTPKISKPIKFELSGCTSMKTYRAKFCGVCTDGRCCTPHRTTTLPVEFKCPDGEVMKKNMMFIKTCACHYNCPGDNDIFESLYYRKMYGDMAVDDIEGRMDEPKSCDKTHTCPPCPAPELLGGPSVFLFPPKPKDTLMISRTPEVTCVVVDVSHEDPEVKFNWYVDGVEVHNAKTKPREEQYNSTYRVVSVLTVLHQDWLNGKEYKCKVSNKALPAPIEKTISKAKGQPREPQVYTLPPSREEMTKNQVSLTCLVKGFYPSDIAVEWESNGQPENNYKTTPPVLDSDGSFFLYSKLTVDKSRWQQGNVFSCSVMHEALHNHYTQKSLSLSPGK

Kd [1]	koff [1]	kon [1]	Kd [2]	koff [2]	kon [2]	Binder	binding result (huWISP-2)	binding result (huNOV)	binding result (huWISP-3)
0.547 nM	4.47e-05 s⁻¹	81700 M⁻¹ s⁻¹	0.95 nM	0.000114 s⁻¹	120000 M⁻¹ s⁻¹	lipocalin mutein of SEQ ID NO: 15 (designed binder, also called hNGAL mutein; not shown: C-terminal His-tag) QDSTSDLIPAPPLSKVPLQQNFQDNQFQGKWYVVGLAGNAILREDKQPAKMFATIYELKEDKSYDVTSVRFEAKSCKYTIKTFVPGSQPGEFTAGYIKSAPGQTSTLVRVVSTNYNQHAMVFFKHVTQNREIFVITLYGRTKELTSELKENFIRFSKSLGLPENHIVFPVPIDQCIDG	no binding (tested: dilutions starting at 1000 nM)	no binding (tested: dilutions starting at 1000 nM)	no binding (tested: dilutions starting at 1000 nM)
11.2 nM	0.00112 s⁻¹	100000 M⁻¹ s⁻¹	18 nM	0.00317 s⁻¹	176000 M⁻¹ s⁻¹	lipocalin mutein of SEQ ID NO: 29 (designed binder, Parent hNGAL mutein; also called hNGAL mutein) QDSTSDLIPAPPLSKVPLQQNFQDNQFHGKWYVVGWAGNIKLREDKDPFKMSATIYELKEDKSYNVTEVVFEQKKCHYIIKTFVPGSQPGEFTLGDIKSPPGETSSLVRVVSTNYNQHAMVFFKKVFQNREFFWITLYGRTKELTSELKENFIRFSKSLGLPENHIVFPVPIDQCIDGSAWSHPQFEK	no binding (tested: dilutions starting at 1000 nM)	no binding (tested: dilutions starting at 1000 nM)	no binding (tested: dilutions starting at 1000 nM)
9.27 nM	0.000248 s⁻¹	26800 M⁻¹ s⁻¹	27.7 nM	0.00129 s⁻¹	46500 M⁻¹ s⁻¹	lipocalin mutein of SEQ ID NO: 25 (designed binder, Parent hNGAL mutein; also called hNGAL mutein) QDSTSDLIPAPPLSKVPLQQNFQDNQFHGKWYVVGMAGNFRLREDKDPSKMGATIYELKEDKSYNVTQVQFDDKKCLYVIETFVPGSQPGEFTLGAIKSFPGFTSQLVRVVSTNYNQHAMVFFKKVYQNREVFWITLYGRTKELTSELKENFIRFSKSLGLPENHIVFPVPIDQCIDGSAWSHPQFEK	no binding (tested: dilutions starting at 1000 nM)	no binding (tested: dilutions starting at 1000 nM)	no binding (tested: dilutions starting at 1000 nM)
12.8 nM	0.00102 s⁻¹	79800 M⁻¹ s⁻¹	16 nM	0.00169 s⁻¹	105000 M⁻¹ s⁻¹	lipocalin mutein of SEQ ID NO: 9 (designed binder, Parent hNGAL mutein; also called hNGAL mutein) QDSTSDLIPAPPLSKVPLQQNFQDNQFHGKWYVVGLAGNKILRIDKQPAKMFATIYELKEDKSYDVTSVRFEARSCSYTIKTFVPGSQPGEFTAGNIKSAPGQTSTLVRVVSTNYNQHAMVFFKHVSQNRETFVITLYGRTKELTSELKENFIRFSKSLGLPENHIVFPVPIDQCIDGSAWSHPQFEK	no binding (tested: dilutions starting at 1000 nM)	no binding (tested: dilutions starting at 1000 nM)	no binding (tested: dilutions starting at 1000 nM)
60.2 nM	0.00587 s⁻¹	97600 M⁻¹ s⁻¹	62.8 nM	0.00754 s⁻¹	120000 M⁻¹ s⁻¹	lipocalin mutein of SEQ ID NO: 7 (designed binder, Parent hNGAL mutein; also called hNGAL mutein) QDSTSDLIPAPPLSKVPLQQNFQDNQFHGKWYVVGLAGNYGLRTDKRPSKMFATIYELKEDKSYDVTSVRFEQERCHYTIRTFVPGSQPGEFTTGSIKSRPGQTSSLVRVVSTNYNQHAMVFFKSVIQNREYFAITLYGRTKELTSELKENFIRFSKSLGLPENHIVFPVPIDQCIDGSAWSHPQFEK	no binding (tested: dilutions starting at 1000 nM)	no binding (tested: dilutions starting at 1000 nM)	no binding (tested: dilutions starting at 1000 nM)
37.5 nM	0.00749 s⁻¹	200000 M⁻¹ s⁻¹	39.3 nM	0.0117 s⁻¹	297000 M⁻¹ s⁻¹	lipocalin mutein of SEQ ID NO: 3 (designed binder, Parent hNGAL mutein; also called hNGAL mutein) QDSTSDLIPAPPLSKVPLQQNFQDNQFHGKWYVVGRAGNNRLREDKDPPKMWATIYELKEDKSYNVTHVHFMTKKCRYIIDTFVPGSQPGEFTLGAIKSGPGMTSPLVRIVSTNYNQHAMVFFKWVNQNREWFTITLYGRTKELTSELKENFIRFSKSLGLPENHIVFPVPIDQCIDGSAWSHPQFEK	no binding (tested: dilutions starting at 1000 nM)	no binding (tested: dilutions starting at 1000 nM)	no binding (tested: dilutions starting at 1000 nM)
